Laboratory results taken from patent US20230312689A1.

Target: two kinds of spike viruses (Wuhan type S, European type SD614G)
Test: cell-based or functional assay

B1: CTMA9-105 (antibody, V domains shown)
VH: EVQLVESGGGLIQPGGSLRLSCAASGITVSSNYMSWVRQAPGKGLEWVSLIYSGGSTYYADSVKGRFTISRDNSKNTLYLQMNSLRAEDTAVYYCARDLEEAGGMDVWGQGTTVTVSS
VL: DIVMTQSPGTLSLSPGERATLSCRASQSVPSIYLAWYQQRPGQAPRLLIYGASSRATGIPDRFSGSGSGTDFTLTISRLEPEDFAVYYCQQYGSSPGTFGQGTKVEIK
Q: How did the IC50, pseudovirus neutralization test using the purified antibody turn out when B1 was run?
A: Its IC50, pseudovirus neutralization test using the purified antibody is 2 to 6 ng/mL.
